In patent US20230295272A1:

Experiments:
[1] = molecular target: canine parvovirus (CPV), CPV-2c TS02 strain, purified virus (canine parvovirus CPV-2c (TS02 strain)); test: indirect ELISA, purified CPV coated at 10 ug/mL, purified nanobody diluted 1:1,000, anti-His-HRP
[2] = molecular target: canine parvovirus (CPV), CPV-2c TS02 strain, purified virus (canine parvovirus CPV-2c (TS02 strain)); test: cell-based or functional assay
[3] = molecular target: canine parvovirus (CPV), CPV-2c TS02 strain, purified virus (canine parvovirus CPV-2c (TS02 strain)); test: indirect ELISA, purified CPV coated at 10 ug/mL, purified nanobody diluted 1:10, anti-His-HRP
[4] = molecular target: canine parvovirus (CPV), CPV-2c TS02 strain, purified virus (canine parvovirus CPV-2c (TS02 strain)); test: indirect ELISA, purified CPV coated at 10 ug/mL, purified nanobody diluted 1:100, anti-His-HRP
[5] = molecular target: canine parvovirus (CPV), CPV-2c TS02 strain, purified virus (canine parvovirus CPV-2c (TS02 strain)); test: indirect ELISA, purified CPV coated at 10 ug/mL, purified nanobody diluted 1:10,000, anti-His-HRP

B1: canine parvovirus (CPV) nanobody CPV-VHH-E3 (VHH)
VHH: QLQLVESGGGSVQPGGSLRLSCAASGFTLDFYRVGWFRQAPGKERQGVACIGSAGDRTFYVDSVKGRFTISKDNTKNTVYLQMNSLKPEDTAVYYCAAVLSPRITSVQAMCTHHGEGFDYWGQGTQVTVSS
In the case of B1, the OD450nm average value [1] is reported as 2.24 OD450nm, the CPE number at antibody dilution 1:10 (of 3 wells with CPE) [2] is reported as 3 and the neutralizing titer (virus neutralization test, CPE on CRFK cells) (titer (1:x dilution)) [2] is reported as under 10. It also gave an OD450nm average value [3] of 2.81 OD450nm, an OD450nm average value [4] of 2.6 OD450nm and an OD450nm average value [5] of 0.17 OD450nm.
